Three molecules from patent US20150218534A1, “MODIFIED DNA POLYMERASE” (TOYOBO CO., LTD., priority 2012, published 2015) can be followed below.

The assay relates to human genomic DNA (about 1.3 kb) with dUTP added. In words: Evaluation of uracil (dUTP) sensitivity by PCR with dUTP added to the reaction. The assay is classed as biochemical. The note with it: dUTP added to PCR (FIGS. 3 and 4). Here is the method:
The uracil sensitivity of the modified DNA polymerase of the present invention can be evaluated by PCR. For example, a dUTP solution is added at a final concentration of 0.5 μM to 200 μM to a common PCR reaction solution containing DNA as a template, a buffer, magnesium, dNTPs, primers, and a DNA polymerase to be evaluated, and thermal cycling is performed. After the reaction, the presence or absence of PCR products is confirmed by ethidium bromide-stained agarose electrophoresis, and the uracil sensitivity can be evaluated by the concentration of accepted dUTP. With a DNA polymerase having high uracil sensitivity, the extension reaction is inhibited by the addition of a small amount of dUTP, and PCR products cannot be confirmed. With a DNA polymerase having low uracil sensitivity, gene amplification by PCR can be confirmed without problem, even if a high concentration of dUTP is added. The modified DNA polymerase with low uracil sensitivity in the present invention refers to a DNA polymerase such that when optimum thermal cycling is performed using any primers and DNA as a template in a reaction buffer optimum for the enzyme, even if a high concentration of dUTP is added, an extension reaction is not inhibited and PCR products can be confirmed, compared to wild-type DNA polymerase, which has no mutation.
More specifically, 10× PCR buffer included in KOD-Plus-Ver. 2 (produced by Toyobo Co. Ltd.) or 10× PCR buffer included in Pfu DNA Polymerase (produced by Agilent) is used; dUTP (produced by Roche) is added to 50 μl of individual reaction solutions containing 1× PCR buffer, 1.5 mM MgSO4, dNTPs (dATP, dTTP, dCTP, and dGTP) in an amount of 0.2 mM, primers represented by SEQ ID NOs: 25 and 26 in an amount of 15 pmol for amplifying about 1.3 kb, 10 ng of human genomic DNA (produced by Roche), and 1 U of each respective enzyme, to final concentrations of 0.5, 5, 50, 100, and 200 μM. PCR is performed using a GeneAmp PCR system 9700 (Applied Biosystems) on the following schedule; preliminary reaction at 94° C. for 30 seconds, followed by 30 cycles, each cycle consisting of 98° C. for 10 seconds, 65° C. for 30 seconds, and 68° C. for 1 minute and 30 seconds. After the completion of each individual reaction, 5 μl of each of the resulting reaction solutions is subjected to agarose electrophoresis, followed by ethidium bromide staining. The uracil sensitivity can be evaluated by confirming amplified DNA fragments of about 1.3 kb under ultraviolet irradiation.
PCR was performed by the following method to evaluate uracil sensitivity. For PCR, components included in KOD-Plus-Ver. 2 (produced by Toyobo Co. Ltd.) were used. dUTP (produced by Roche) was added to 50 μl of individual reaction solutions containing 1× PCR buffer, 1.5 mM MgSO4, dNTPs (dATP, dTTP, dCTP, dGTP) in an amount of 0.2 mM, primers represented by SEQ ID NOs: 25 and 26 in an amount of 15 pmol for amplifying about 1.3 kb, 10 ng of human genomic DNA (produced by Roche), and 1 U of each respective enzyme, to final concentrations of 0.5, 5, 50, 100, and 200 μM. PCR was performed using a GeneAmp PCR system 9700 (produced by Applied Biosystems) on the following schedule: preliminary reaction at 94° C. for 30 seconds, followed by 30 cycles, each cycle consisting of 98° C. for 10 seconds, 65° C. for 30 seconds, and 68° C. for 1 minute and 30 seconds. After the completion of each individual reaction, 5 μl of each of the resulting reaction solutions was subjected to agarose electrophoresis, followed by ethidium bromide staining. Under ultraviolet irradiation, amplified DNA fragments of about 1.3 kb were confirmed. FIGS. 3, 4, 7, and 8 show the results.

B1: KOD N210D: modified KOD DNA polymerase with N210D, deficient in 3′-5′ exonuclease activity (exo(−)) (protein, listed as Thermococcus kodakaraensis)
chain: MILDTDYITEDGKPVIRIFKKENGEFKIEYDRTFEPYFYALLKDDSAIEEVKKITAERHGTVVTVKRVEKVQKKFLGRPVEVWKLYFTHPQDVPAIRDKIREHPAVIDIYEYDIPFAKRYLIDKGLVPMEGDEELKMLAFDIETLYHEGEEFAEGPILMISYADEEGARVITWKNVDLPYVDVVSTEREMIKRFLRVVKEKDPDVLITYDGDNFDFAYLKKRCEKLGINFALGRDGSEPKIQRMGDRFAVEVKGRIHFDLYPVIRRTINLPTYTLEAVYEAVFGQPKEKVYAEEITTAWETGENLERVARYSMEDAKVTYELGKEFLPMEAQLSRLIGQSLWDVSRSSTGNLVEWFLLRKAYERNELAPNKPDEKELARRRQSYEGGYVKEPERGLWENIVYLDFRSLYPSIIITHNVSPDTLNREGCKEYDVAPQVGHRFCKDFPGFIPSLLGDLLEERQKIKKKMKATIDPIERKLLDYRQRAIKILANSYYGYYGYARARWYCKECAESVTAWGREYITMTIKEIEEKYGFKVIYSDTDGFFATIPGADAETVKKKAMEFLKYINAKLPGALELEYEGFYKRGFFVTKKKYAVIDEEGKITTRGLEIVRRDWSEIAKETQARVLEALLKDGDVEKAVRIVKEVTEKLSKYEVPPEKLVIHEQITRDLKDYKATGPHVAVAKRLAARGVKIRPGTVISYIVLKGSGRIGDRAIPFDEFDPTKHKYDAEYYIENQVLPAVERILRAFGYRKEDLRYQKTRQVGLSAWLKPKGT
Turning to B1, the “sensitivity to dUTP / amount of amplification, comparison with single mutants or wild type” value (from here on “sensitivity to dUTP / amount”) is reported as “less sensitive to dUTP than the wild-type DNA polymerase”.

B2: KOD D141A/E143A: modified KOD DNA polymerase with D141A and E143A, deficient in 3′-5′ exonuclease activity (exo(−)) (protein, listed as Thermococcus kodakaraensis)
chain: MILDTDYITEDGKPVIRIFKKENGEFKIEYDRTFEPYFYALLKDDSAIEEVKKITAERHGTVVTVKRVEKVQKKFLGRPVEVWKLYFTHPQDVPAIRDKIREHPAVIDIYEYDIPFAKRYLIDKGLVPMEGDEELKMLAFAIATLYHEGEEFAEGPILMISYADEEGARVITWKNVDLPYVDVVSTEREMIKRFLRVVKEKDPDVLITYNGDNFDFAYLKKRCEKLGINFALGRDGSEPKIQRMGDRFAVEVKGRIHFDLYPVIRRTINLPTYTLEAVYEAVFGQPKEKVYAEEITTAWETGENLERVARYSMEDAKVTYELGKEFLPMEAQLSRLIGQSLWDVSRSSTGNLVEWFLLRKAYERNELAPNKPDEKELARRRQSYEGGYVKEPERGLWENIVYLDFRSLYPSIIITHNVSPDTLNREGCKEYDVAPQVGHRFCKDFPGFIPSLLGDLLEERQKIKKKMKATIDPIERKLLDYRQRAIKILANSYYGYYGYARARWYCKECAESVTAWGREYITMTIKEIEEKYGFKVIYSDTDGFFATIPGADAETVKKKAMEFLKYINAKLPGALELEYEGFYKRGFFVTKKKYAVIDEEGKITTRGLEIVRRDWSEIAKETQARVLEALLKDGDVEKAVRIVKEVTEKLSKYEVPPEKLVIHEQITRDLKDYKATGPHVAVAKRLAARGVKIRPGTVISYIVLKGSGRIGDRAIPFDEFDPTKHKYDAEYYIENQVLPAVERILRAFGYRKEDLRYQKTRQVGLSAWLKPKGT
For the molecule B2, the “sensitivity to dUTP / amount” value was “less sensitive to dUTP than the wild-type DNA polymerase”.

B3: KOD I142R: modified KOD DNA polymerase with I142R, deficient in 3′-5′ exonuclease activity (exo(−)) (protein, listed as Thermococcus kodakaraensis)
chain: MILDTDYITEDGKPVIRIFKKENGEFKIEYDRTFEPYFYALLKDDSAIEEVKKITAERHGTVVTVKRVEKVQKKFLGRPVEVWKLYFTHPQDVPAIRDKIREHPAVIDIYEYDIPFAKRYLIDKGLVPMEGDEELKMLAFDRETLYHEGEEFAEGPILMISYADEEGARVITWKNVDLPYVDVVSTEREMIKRFLRVVKEKDPDVLITYNGDNFDFAYLKKRCEKLGINFALGRDGSEPKIQRMGDRFAVEVKGRIHFDLYPVIRRTINLPTYTLEAVYEAVFGQPKEKVYAEEITTAWETGENLERVARYSMEDAKVTYELGKEFLPMEAQLSRLIGQSLWDVSRSSTGNLVEWFLLRKAYERNELAPNKPDEKELARRRQSYEGGYVKEPERGLWENIVYLDFRSLYPSIIITHNVSPDTLNREGCKEYDVAPQVGHRFCKDFPGFIPSLLGDLLEERQKIKKKMKATIDPIERKLLDYRQRAIKILANSYYGYYGYARARWYCKECAESVTAWGREYITMTIKEIEEKYGFKVIYSDTDGFFATIPGADAETVKKKAMEFLKYINAKLPGALELEYEGFYKRGFFVTKKKYAVIDEEGKITTRGLEIVRRDWSEIAKETQARVLEALLKDGDVEKAVRIVKEVTEKLSKYEVPPEKLVIHEQITRDLKDYKATGPHVAVAKRLAARGVKIRPGTVISYIVLKGSGRIGDRAIPFDEFDPTKHKYDAEYYIENQVLPAVERILRAFGYRKEDLRYQKTRQVGLSAWLKPKGT
As for B3, the “sensitivity to dUTP / amount” value is on record as “less sensitive to dUTP than the wild-type DNA polymerase”.
